One data set relates to A431 xenografts. Put plainly: s.c. xenograft therapy study. The format is in vivo, nude mice. The conditions noted are these: established; 6×1 mg IP. The procedure:
Tumor cells (3×10^6) in […] of PBS were inoculated subcutaneously into both flanks of 4-6 week old female nude mice (Animal Research Centre, Western Australia, Australia). […] Treatment was continued for a total of 6 doses, 3 times per week for 2 weeks. In the established model, treatment was started when tumors had reached a mean volume of 65±6.42 mm^3 (U87MG.Δ2-7), 84±9.07 mm3 (U87MG), 73±7.5 mm^3 (U87MG.wtEGFR) or 201±19.09 mm^3 (A431 tumors). Tumor volume in mm^3 was determined using the formula […], where length was the longest axis and width the measurement at right angles to the length (Clark et al. (2000) Therapeutic efficacy of anti-Lewis (y) humanized 3S 193 radioimmunotherapy in a breast cancer model: enhanced activity when combined with Taxol chemotherapy. Clin. Cancer Res. 6, 3621-3628). Data was expressed as mean tumor volume±S.E. for each treatment group. Statistical analysis was performed at given time points using Student's t-test. Animals were euthanized when the xenografts reached an approximate volume of 1.5 cm^3 and the tumors excised for histological examination. This research project was approved by the Animal Ethics Committee of the Austin and Repatriation Medical Centre.
AG1478 (4-(3-Chloroanilino)-6,7-dimethoxyquinazoline) is a potent and selective inhibitor of the EGFR kinase versus HER2-neu and platelet-derived growth factor receptor kinase (Calbiochem Cat. No. 658552). […] The results are illustrated in FIG. 12. […] 400 μg AG1478 was administered at 0, 2, 4, 7, 9, and 11 days post xenograft.
With respect to “(iv),” different groups of mice received either 0.5 mg/injection of each mAb, or 0.25 mg/injection of each mAb.
Finally, the fourth group of mice, which had been inoculated with A431 cells, received injections as in groups I and III, at 8, 10, 12 and 14 days after inoculation. At the start, the average tumor size was 71 mm^3.
To establish xenografts, mice were injected subcutaneously into the right and left inguinal mammary line with 1×10^6 A431 adenocarcinoma cells or 1×10^6 U87MG.de2-7 glioma cells in 100 μl of PBS. Tumor volume (TV) was calculated by the formula […] where length was the longest axis and width the measurement at right angles to length. […] Therapy was administered on days 6, 8, 11, 13, 15 and 18 for A431, and days 4, 6, 8, 11, 13 and 15 for the U87MG.de2-7 cell lines respectively. Mean±SEM tumor volumes until termination of the experiments due to ethical considerations of tumor burden are presented in FIG. 91 for the A431 xenograft until day 25, and in FIG. 92 for U87MG.de2-7 xenografts until day 31.

The subject of a further data set is A431 cells. Kind of data set: ADCC assay. Type of data set: cell-based, human. As to conditions: 1 μg/mL; representative experiment.
Another data set concerns xenograft U87MGΔEGFR. Kind of data set: immunohistochemical analysis on xenograft tumors. Type of data set: binding, human. Background: In xenograft studies the graft and the host belong to different species.
The next data set has as its system xenograft A431. Kind of data set: immunohistochemical analysis on xenograft tumors. The format is binding, human. From the text: The murine fibroblast line NR6ΔEGFR was used as immunogen. Mouse hybridomas were generated by immunizing BALB/c mice five times subcutaneously at 2- to 3-week intervals, with 5×10^5-2×10^6 cells in adjuvant. Complete Freund's adjuvant was used for the first injection. Thereafter, incomplete Freund's adjuvant (Difco™, Voigt Global Distribution, Lawrence, Kans.) was used. Spleen cells from immunized mice were fused with mouse myeloma cell line SP2/0 (Shulman et al. (1978) Nature 276:269-270). Supernatants of newly generated clones were screened in hemadsorption assays for reactivity with cell line NR6, NR6wtEGFR, and NR6ΔEGFR and then analyzed by hemadsorption assays with human glioblastoma cell lines U87MG, U87MGwtEGFR, and U87ΔEGFR. Selected hybridoma supernatants were subsequently tested by western blotting and further analyzed by immunohistochemistry. Newly generated mAbs showing the expected reactivity pattern were purified.
Bound antibody was detected using the Dako Envision+ HRP detection system as per manufacturer's instructions. Sections were finally rinsed with water, counterstained with hematoxylin and mounted.

The target of data set [1] is T1, denatured soluble domain of the EGFR (sEGFR) (Homo sapiens, UniProt P00533).
T1 construct: sEGFR is the recombinant extracellular domain (amino acids 1-621) of the wild-type EGFR); host or cells: CHO cells
Kind of data set: competition ELISA with biotinylated mAb806. The format is binding. As to conditions: after unlabeled blocking antibody. Here is the method: Briefly, the denatured soluble domain of the EGFR (sEGFR) was coated on to ELISA plates. The unlabeled 124 or 1133 antibodies were then added across the plate in increasing concentrations.
On the technique in general: An ELISA detects its analyte on a solid surface through an enzyme-linked reagent.

This note sets out measurements from US20110293511A1, “SPECIFIC BINDING PROTEINS AND USES THEREOF” (priority 2009, published 2011).

Method for A431 cells: PBMCs were isolated from healthy volunteer donor blood. Heparinized whole blood was fractionated by density centrifugation on Ficoll-Hypaque (ICN Biomedical Inc., Ohio, USA). PBMC fractions was collected and washed three times with RPMI^+ 1640 supplemented with 100 U/ml penicillin and 100 μg/ml streptomycin, 2 mM L-glutamine, containing 5% heat-inactivated FCS.
CDC and ADCC assays were performed by a modification of a previously published method (Nelson, D. L. et al. (1991) In: J. E. Colignan, A. M. Kruisbeek, D. D. Margulies, E. M. Shevach, and W. Strober (eds.), Current Protocols in Immunology, pp. 7.27.1. New York: Greene Publishing Wiley Interscience). Briefly, 5×10^6 target U87MG.de2-7 and A431 cells were labeled with 50 μCi^51Cr (Geneworks, Adelaide, Australia) per 1×10^6 cells and incubated for 2 hr at 37° C. The cells were then washed three time with PBS (0.05M, pH 7.4) and a fourth wash with culture medium. […]
In the first assay, labelled target cells were plated with the effector cells in 96-well “U” bottom microplates (NUNC, Roskilde, Denmark) at effector/target (E:T) cell ratios of 50:1. […] In both assays, micotitre plates were incubated at 37° C. for 4 hours, then 50 μl supernatant was harvested from each well and released ^51Cr was determined by gamma counting (Cobra II automated Gamma Counter, Canberra Packard, Melbourne, Australia). […]

B1: hu806: humanized (veneered) 806 antibody, human IgG1; SEQ ID NO:42 and SEQ ID NO:47 (antibody, V domains shown)
VH: MDWTWRILFLVAAATGVHSQVQLQESGPGLVKPSQTLSLTCTVSGYSISSDFAWNWIRQPPGKGLEWMGYISYSGNTRYQPSLKSRITISRDTSKNQFFLKLNSVTAADTATYYCVTAGRGFPYWGQGTLVTVSS
VL: MDWTWRILFLVAAATGVHSDIQMTQSPSSMSVSVGDRVTITCHSSQDINSNIGWLQQKPGKSFKGLIYHGTNLDDGVPSRFSGSGSGTDYTLTISSLQPEDFATYYCVQYAQFPWTFGGGTKLEIKR
Take B1: the “xenograft growth versus PBS vehicle control” value in the data set with A431 xenografts is recorded as “marked reduction in A431 xenograft growth”. Further, the ADCC cytotoxicity in the data set with A431 cells stood at 30%.

B2: mAb1133: murine IgG2a monoclonal antibody, clone 1133; VH SEQ ID NO:32, VL SEQ ID NO:37 (antibody, listed as Mus musculus, V domains shown)
VH: DVQLQGSGPSLVKPSQSLSLTCTVTGYSITSDYAWNWIRQFPGNKLEWMGYISYSGNTRYNPSLRSRISITRDTSKNQFFLQLNSVTTEDTATYYCATAGRGFPYWGQGTLVTVSA
VL: DILMTQSPSSMSVSLGDTVNITCHSSQDINSNIGWLQQKPGKSFKGLIYHGTNLDDGVPSRFSGSGSGADYSLTISSLESEDFADYYCVQYGQFPWTFGGGTKLEIKR
Consider B2, for which the Immunohistochemical staining result in the data set with xenograft U87MGΔEGFR was “pos”; in the data set with xenograft A431 it was “pos. (predominantly basal”. The “Binding of biotin-labeled 806” value in data set [1] is given as “None”.
